Results as given in paper PMC5716219.

Key:
[1] = biological target: T1, CST complex (CTC1-STN1-TEN1) (human, UniProt Q2NKJ3;Q9H668;Q86WV5 1-1217;1-368;1-123); assay: EMSA
[2] = biological target: T1, CST complex (CTC1-STN1-TEN1); assay: EMSA; remark: listed apart in the source
[3] = biological target: T1, CST complex (CTC1-STN1-TEN1); assay: EMSA; remark: listed apart in the source
[4] = biological target: T1, CST complex (CTC1-STN1-TEN1); assay: EMSA; remark: listed apart in the source
[5] = biological target: T1, CST complex (CTC1-STN1-TEN1); assay: EMSA; remark: listed apart in the source
[6] = biological target: T1, CST complex (CTC1-STN1-TEN1); assay: smFRET
[7] = biological target: T1, CST complex (CTC1-STN1-TEN1); assay: smFRET; remark: listed apart in the source
[8] = biological target: T1, CST complex (CTC1-STN1-TEN1); assay: EMSA; remark: listed apart in the source

T1 sequence (Q2NKJ3 whole entry, chain 1 of 3): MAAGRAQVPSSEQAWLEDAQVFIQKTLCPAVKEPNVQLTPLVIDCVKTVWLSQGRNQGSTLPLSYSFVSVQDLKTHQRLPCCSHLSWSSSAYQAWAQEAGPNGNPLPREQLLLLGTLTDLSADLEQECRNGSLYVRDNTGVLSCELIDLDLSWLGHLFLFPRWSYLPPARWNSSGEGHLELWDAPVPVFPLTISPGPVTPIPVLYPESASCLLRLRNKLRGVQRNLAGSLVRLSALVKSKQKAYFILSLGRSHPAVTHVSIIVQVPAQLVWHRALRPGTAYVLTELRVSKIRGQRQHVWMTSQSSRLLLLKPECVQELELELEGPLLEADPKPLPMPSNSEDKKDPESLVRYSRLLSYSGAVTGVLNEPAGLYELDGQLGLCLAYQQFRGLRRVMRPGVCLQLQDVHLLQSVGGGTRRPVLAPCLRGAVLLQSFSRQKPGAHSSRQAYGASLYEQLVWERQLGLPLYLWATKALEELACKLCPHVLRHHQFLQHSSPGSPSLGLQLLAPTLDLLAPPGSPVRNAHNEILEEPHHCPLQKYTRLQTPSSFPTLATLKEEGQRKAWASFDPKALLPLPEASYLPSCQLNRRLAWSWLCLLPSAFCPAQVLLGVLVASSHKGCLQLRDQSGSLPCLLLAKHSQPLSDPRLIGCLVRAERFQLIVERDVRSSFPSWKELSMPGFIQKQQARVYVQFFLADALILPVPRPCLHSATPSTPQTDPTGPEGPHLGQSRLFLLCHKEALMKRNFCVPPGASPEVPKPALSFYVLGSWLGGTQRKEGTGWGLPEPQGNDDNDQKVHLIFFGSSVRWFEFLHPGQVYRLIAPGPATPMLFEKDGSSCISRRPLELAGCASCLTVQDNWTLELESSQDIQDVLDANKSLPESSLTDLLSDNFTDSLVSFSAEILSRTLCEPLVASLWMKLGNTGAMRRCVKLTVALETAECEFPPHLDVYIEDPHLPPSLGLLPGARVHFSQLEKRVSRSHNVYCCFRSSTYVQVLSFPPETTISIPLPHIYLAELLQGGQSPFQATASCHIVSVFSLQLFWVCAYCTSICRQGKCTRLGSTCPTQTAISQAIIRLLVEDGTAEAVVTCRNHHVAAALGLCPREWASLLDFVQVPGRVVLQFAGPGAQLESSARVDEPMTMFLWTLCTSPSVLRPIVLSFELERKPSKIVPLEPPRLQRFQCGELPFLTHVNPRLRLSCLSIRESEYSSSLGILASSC
T1 sequence (Q9H668 whole entry, chain 2 of 3): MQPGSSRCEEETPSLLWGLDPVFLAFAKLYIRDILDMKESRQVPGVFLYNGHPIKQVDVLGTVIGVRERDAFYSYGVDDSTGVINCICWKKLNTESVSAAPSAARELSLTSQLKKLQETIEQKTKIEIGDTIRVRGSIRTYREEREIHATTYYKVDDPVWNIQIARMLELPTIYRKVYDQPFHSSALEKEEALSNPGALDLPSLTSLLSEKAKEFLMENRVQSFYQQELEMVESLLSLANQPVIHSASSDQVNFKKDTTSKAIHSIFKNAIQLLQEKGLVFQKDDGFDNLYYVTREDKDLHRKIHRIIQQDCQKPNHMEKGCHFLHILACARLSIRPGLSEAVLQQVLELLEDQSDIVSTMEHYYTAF
T1 sequence (Q86WV5 whole entry, chain 3 of 3): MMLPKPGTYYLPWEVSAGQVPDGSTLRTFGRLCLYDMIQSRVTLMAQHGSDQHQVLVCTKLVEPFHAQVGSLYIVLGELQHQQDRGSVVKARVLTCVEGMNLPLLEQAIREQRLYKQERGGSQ

B1: Telomere fold-back 18 nt 3' overhang (structured_DNA)
DNA: CTAACCGCATCTAGCTTTTTGCTAGATGCGGTTAGGGTTAGGGTTAGGGTTAG
B1: binds [1].

B2: Mixed fold-back 18 nt 3' overhang (structured_DNA)
DNA: ACGACTGCATCTAGCTTTTTGCTAGATGCAGTCGTGGTTAGGGTTAGGGTTAG
B2: binds [2].

ACGACTGCATCTAGCTTTTTGCTAGATGCAGTCGT (structured_DNA) [Non-Tel fold-back (dsDNA), no overhang]: no binding [2].

AGCGTATCCGTTCAGTTG (ssDNA) [Non-Tel 18]: no binding [2].

GGGTTAGGGTTAGGGTTAGGG (structured_DNA) [G4]: binds [3].

B3: Non-Tel fold-back 18 nt 3' overhang (structured_DNA)
DNA: ACGACTGCATCTAGCTTTTTGCTAGATGCAGTCGTAGCGTATCCGTTCAGTTG
B3: binds [1].

GGTTAGGGTTAGGGTTAG (ssDNA) [Tel 18]: binds [4].

TTAGGGTTAGGGTTAGGGTTAGGG (structured_DNA) [3G4]: binds [3].

CGATCTGAGTCACTGAGTACGC (ssDNA) [Non-Tel 22]: no binding [5].

B4: smFRET non-telomeric junction, 18 nt overhang (mixed)
DNA 1: TGGCGACGGCAGCGAGGCAGCGTATCCGTTCAGTTG
DNA 2: GCCTCGCTGCCGTCGCCA
B4: binds [6].

B5: smFRET 3G4-Cy3 (mixed)
DNA 1: TGGCGACGGCAGCGAGGCTTAGGGTTAGGGTTAGGGTTAGGG
DNA 2: GCCTCGCTGCCGTCGCCA
B5: binds [7].

B6: smFRET 3G46-Cy3 (mixed)
DNA 1: TGGCGACGGCAGCGAGGCTTAGGGTTAGGGTTAGGGTTAGGGAGCGTA
DNA 2: GCCTCGCTGCCGTCGCCA
B6: binds [7].

B7: Two-oligonucleotide junction 32/22 (mixed)
DNA 1: GCGTACTCAGTGACTCAGATCGAGCGTATCCG
DNA 2: CGATCTGAGTCACTGAGTACGC
B7: binds [8].

TTAGGGTTAGGGTTAGGGTTAGGGAGCGTA (structured_DNA) [3G46]: binds [3].

TTAGGGTTAGGGTTAGGGTTAGGGTTAGGG (structured_DNA) [3G5 (G5 in text)]: binds [3].
